Assay results published in article PMC3626232 (The Journal of biological chemistry, 2000).

T1: XMcm3 (Xenopus (endogenous in Xenopus egg …, UniProt P49739 1-807))
T1 sequence (looked up): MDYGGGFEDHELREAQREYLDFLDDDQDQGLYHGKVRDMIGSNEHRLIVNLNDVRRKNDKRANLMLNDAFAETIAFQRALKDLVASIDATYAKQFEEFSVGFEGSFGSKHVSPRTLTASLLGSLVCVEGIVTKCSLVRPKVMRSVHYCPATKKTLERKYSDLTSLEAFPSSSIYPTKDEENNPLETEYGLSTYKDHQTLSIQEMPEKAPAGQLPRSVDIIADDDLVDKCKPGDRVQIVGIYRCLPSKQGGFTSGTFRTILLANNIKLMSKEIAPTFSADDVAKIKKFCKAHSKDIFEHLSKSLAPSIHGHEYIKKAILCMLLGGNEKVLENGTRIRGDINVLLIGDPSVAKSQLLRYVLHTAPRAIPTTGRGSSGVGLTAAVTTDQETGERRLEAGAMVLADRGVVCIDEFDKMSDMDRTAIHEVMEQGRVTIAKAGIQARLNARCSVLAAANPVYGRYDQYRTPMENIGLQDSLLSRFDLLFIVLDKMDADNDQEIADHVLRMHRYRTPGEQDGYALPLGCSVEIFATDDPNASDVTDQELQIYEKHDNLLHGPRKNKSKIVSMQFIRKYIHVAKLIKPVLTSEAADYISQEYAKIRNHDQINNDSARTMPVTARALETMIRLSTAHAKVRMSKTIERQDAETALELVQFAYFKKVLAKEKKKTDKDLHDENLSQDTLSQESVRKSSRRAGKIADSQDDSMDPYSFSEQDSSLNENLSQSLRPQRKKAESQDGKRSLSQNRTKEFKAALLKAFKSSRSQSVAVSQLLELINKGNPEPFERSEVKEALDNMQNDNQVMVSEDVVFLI

T2: XMcm2 (Xenopus (endogenous in Xenopus egg …, UniProt P55861 1-886))
T2 sequence (looked up): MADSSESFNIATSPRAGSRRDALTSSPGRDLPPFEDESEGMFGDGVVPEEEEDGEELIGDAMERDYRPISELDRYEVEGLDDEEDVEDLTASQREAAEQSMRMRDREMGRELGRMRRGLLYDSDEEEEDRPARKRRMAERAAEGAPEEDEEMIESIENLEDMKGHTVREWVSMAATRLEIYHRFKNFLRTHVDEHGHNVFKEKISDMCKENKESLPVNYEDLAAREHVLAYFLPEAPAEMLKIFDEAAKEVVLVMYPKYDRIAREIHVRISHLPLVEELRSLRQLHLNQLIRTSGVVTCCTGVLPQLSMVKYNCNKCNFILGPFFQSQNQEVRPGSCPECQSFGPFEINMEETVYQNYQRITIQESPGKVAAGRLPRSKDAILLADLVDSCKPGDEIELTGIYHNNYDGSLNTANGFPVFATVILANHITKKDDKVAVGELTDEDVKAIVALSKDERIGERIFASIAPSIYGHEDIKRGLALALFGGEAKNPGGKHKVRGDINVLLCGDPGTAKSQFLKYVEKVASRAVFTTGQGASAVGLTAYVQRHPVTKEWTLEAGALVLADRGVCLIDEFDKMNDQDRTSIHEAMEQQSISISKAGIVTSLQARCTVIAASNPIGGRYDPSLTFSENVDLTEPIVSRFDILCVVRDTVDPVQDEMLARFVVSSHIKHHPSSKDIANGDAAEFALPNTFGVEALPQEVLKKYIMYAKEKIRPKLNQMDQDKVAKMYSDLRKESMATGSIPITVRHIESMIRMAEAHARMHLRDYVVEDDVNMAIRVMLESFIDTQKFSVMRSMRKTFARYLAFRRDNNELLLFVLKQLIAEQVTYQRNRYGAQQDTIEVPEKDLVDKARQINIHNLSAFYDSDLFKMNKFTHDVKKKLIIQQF

B1: XMcm5 (natural protein, UniProt P55862 1-735, looked up)
chain: MSGFDDLGVYYSDSFGGEQQVGDDGQAKKSQLKKRFREFLRQYRIGTDRTGFTFKYRDELKRHYNLGEYWIEVEMEDLASFDEDLADYLYKQPTEHLQLLEEAAQEVADEVTRPRPAGEETIQEIQVMLRSDANPANIRSLKSEQMSHLVKIPGIIIAATAVRAKATKISIQCRSCRNTIGNIAVRPGLEGYAMPRKCNTEQAGRPNCPLDPYFIIPDKCKCVDFQTLKLQESPDAVPHGELPRHMQLYCDRYLCDKVVPGNRVTIMGIYSIRKSGKTSTKGRDRVGVGIRSSYIRVVGIQVDTEGTGRSAAGAITPQEEEEFRRLAAKPDIYETVAKSIAPSIYGSSDIKKAIACLLFGGSRKRLPDGLTRRGDVNLLMLGDPGTAKSQLLKFVERCSPIGVYTSGKGSSAAGLTASVMRDPVSRNFIMEGGAMVLADGGVVCIDEFDKMREDDRVAIHEAMEQQTISIAKAGITTTLNSRCSVLAAANSVYGRWDDTKGEENIDFMPTILSRFDMIFIVKDEHNEQRDMTLAKHVMNVHLSARTQSSSVEGEVDLNTLKKYIAYCRAKCGPRLSAEAAEKLKNRYILMRSGAREHERETEKRSSIPITVRQLEAIVRISESLGKMKLQPFATETDVEEALRLFQVSTLDAAMSGSLSGVEGFTTQEDQEMLSRIEKQMKKRFAIGSQVSEHSIIQDFLKQKYPEHAIHKVLSLMMRRGEIQHRLQRKVLYRIK
B2: XMcm4 (natural protein, UniProt P30664 1-863, looked up)
chain: MSSPTSTPSRRRNKRGRGSNPPTPHGEEVQSPPSQRRRTEDSTSIGELLPMPTSPSGDVQSPSGQELLFSSPAPSRHSAHQSELDLSSPLTYGTPSSRVEGTPRSGIRGTPARQRPDLGSARKVKQVDLHSDQPAAEELVTSEQSLGQKLVIWGTDVNVATCKEKFQRFVQRFIDPSAKEEDNVGLDLNEPIYMQRLEEINVVGDPFLNIDCDHLRNFDQDLYRQLVCYPQEVIPTFDMAANEIFFERYPDSILEHQIQVRPYNALKTRNMRSLNPEDIDQLITISGMVIRTSQIIPEMQEAFFKCQVCAFTTRVEIDRGRIAEPSVCKHCNTTHSMALIHNRSMFSDKQMIKLQESPEDMPAGQTPHTTILYGHNDLVDKVQPGDRVNVTGIYRAVPIRVNPRVRNVKSVYKTHIDVIHYRKTDSKRLHGIDEDTEQKLFTEERVAMLKELAAKPDIYERLAAALAPSIYEHEDIKKGILLQLFGGTRKDFSHTGRGKFRAEVNILLCGDPGTSKSQLLQYVFNLVPRGQYTSGKGSSAVGLTAYVMKDPETRQLVLQTGALVLSDNGICCIDEFDKMNESTRSVLHEVMEQQTLSIAKAGIICQLNARTSVLAAANPVESQWNPKKTTIENIQLPHTLLSRFDLIFLMLDPQDEAYDRRLAHHLVALYYQSEEQMKEEHLDMAVLKDYIAYARTYVNPRLSEEASQALIEAYVSMRKIGSGRGMVSAYPRQLESLIRLSEAHAKVRFSNKVETIDVEEAKRLHREALKQSATDPRTGIVDISILTTGMSATARKRKEELAQVLKKLIQSKGKTPALKYQQLFEDLRGQSDAAITKDMFDEALHALADDDYLTVTGKTVRLL
B3: XMcm6 (natural protein, UniProt Q5FWY4 1-821, looked up)
chain: MELGGPAAAGDTDIAGQQLFKDELSDKCQKLFLEFLEECKGKDGSNLYVSAAEELIRPERNTLAVNFTDIEYYNQQLATTIQEEYYRVYPHLCRAVRSFARQMGNIPANKEFYIAFSDFPARQKIRELSSAKIGTLLRISGQVVRTHPVHPELVSGTFLCMDCQSIVKDVEQQFRYTQPTICKNPVCANRRRFTLDTNKSRFVDFQKVRIQETQAELPRGAIPRSVEIILRAEAVESAMAGDRCDFTGTLIVVPDVSALAAGDARMETGAKVTGGEGFNSEGVQGLKALGVRDLSYRLAFLACYVGATNPRFGGKDLREEDQTAESIKNQMTVQEWEKVFEMSQDKNLYHNLCTSLFPTIHGNDEIKRGVLLMLFGGVPKTTMEGTSLRGDINVCIVGDPSTSKSQFLKHVEEFSPRAVYTSGKASSAAGLTAAVVKDEESHEFVIEAGALMLADNGVCCIDEFDKMDLKDQVAIHEAMEQQTISITKAGVKATLNARTSILAAANPVGGRYERSKSLKHNVNLSAPIMSRFDLFFILVDECNEVTDYAIARRIVDLHARNEESIERVYSIEDIQRYLLFARQFQPKITKEAEEFIVEQYRRLRQRDGSGVAKSSWRITVRQLESLIRLSESMARMHCSDEVQPKHVKEAFRLLSKSIIRVDTPDVSFDQGEDEKNIEGENNGNLNNGEEAMETNQDEPINEKPSSNAGLKMSFAEYKQISNLLVLYMQKMEETEEECHLTTTDLVNWYLKEMEAEIETETELILKKRLIEKVIHRLIYYDHILIELNKSELKTMDDTKETGEDAAEDRILVVNPNYMLED
B4: XMcm7 (natural protein, UniProt Q91876 1-720, looked up)
chain: MPRDYQTEKEKCKTFLQEFYKDDEIGKKHFKYGVQLANIAHREQVALYIDLDDLAEEDPELVDAICENTRRYTNLFADAVQELLPQYKEREVVHKDALDVYIEHRLMMEQRGRDPNEMRDSQNQYPPELMRRFELYFKAPSSSKARVVRDVKADSIGKLVNIRGIVTRVTEVKPMMVVATYTCDQCGAETYQPIQSPTFMPLIMCPSRECQTNRSGGRLYLQTRGSKFIKFQELKIQEHSDQVPVGNIPRCMSVYVRGENTRLAQPGDHVGITGVFLPMLRTGFRQVVQGLLSETYLECHRLVKMNKSEDDELGTEELSEEELRQITEEDFYEKLAASIAPEIYGHEDVKKALLLLLVGGVDNSPRGMKIRGNINICLMGDPGVAKSQLLSYIDRLAPRSQYTTGRGSSGVGLTAAVMKDPVTGEMTLEGGALVLADQGVCCIDEFDKMMDTDRTAIHEVMEQQTISIAKAGIMTTLNARCSILAAANPAYGRYNPKKTVEQNIQLPAALLSRFDVLWLIQDKPDRDNDLRLAQHITYVHQHSKQPPSQFQPLDMKLMRRYITMCKRKQPAIPEALADYLTAAYVEMRKEARTNKDMTFTSARTLLSVLRLSTALARLRLEDVVEKEDVNEAMRLMEMSKDSLLGDKGHTSRTQRPADVIFSTIREMVPEKGARSVKYSEAEQRCVSKGFTPAQFEAALEEYEELNVWLVNQARTKITFV

Columns and labels:
Experiment in all cases: co-purification by chromatography with densitometry
XMcm3 = molecular target: T1, XMcm3
XMcm2 = molecular target: T2, XMcm2
XMcm4 = molecular target: B2

stoichiometry N (XMcm3) [XMcm5 per 1.0 XMcm3]	stoichiometry N (XMcm2)	stoichiometry N (XMcm4)	binding result (XMcm3)	Binder
1.2				B1
	1.1 XMcm4 per 1.0 XMcm2			B2
	1.1 XMcm6 per 1.0 XMcm2	1 XMcm6 per 1.0 XMcm4		B3
	1.1 XMcm7 per 1.0 XMcm2	1.1 XMcm7 per 1.0 XMcm4	binds	B4
